# In the RNAGym collection of RNA variant scans (doi:10.7554/elife.80360):
# B1: Hammerhead Ribozyme (parent)
# chain: ACCGGAUGUGCUUUCCGGUCUGAUGAGUCCGUGAGGACGAAACAG
# Variants of: B1
# Assay: self-cleavage, relative activity (ratio to wild type); higher = more cleavage; co-transcriptional
row,Variant,self-cleavage
1,C20A G39U,0.329
2,A40G G45C,0.466
3,U9A A44G,1.46
4,G27U A44C,0.305
5,G36U A40G,0.29
6,G18C A23U,0.32
7,C20U A42G,0.258
8,C16U G25A,0.338
9,C16U G17U,0.714
10,G25C A26C,0.355
11,C3A G45C,0.355
12,A6U U7A,0.609
13,C20A U28A,0.435
14,G17A A26C,0.272
15,U21A G39A,0.311
16,G33A C43A,0.369
17,G22C C38G,0.386
18,G4C A40U,0.255
19,U12G A41U,0.298
20,G25C G45C,0.378
21,U13C C16G,0.666
22,G5C G10U,0.64
23,C3A U14C,0.436
24,U13A G31U,1.39

row,Variant,self-cleavage
1,G4U G5C,0.352
2,U24C C29G,0.605
3,G5A,1.32
4,A1C G36U,0.401
5,A6G G35A,0.302
6,A6G C29A,0.36
7,G8A U19C,0.489
8,U24A G36U,0.618
9,U12C A23U,0.321
10,G18U U32A,0.646
11,G8C A41C,0.312
12,G4C C16G,1.35
13,C2U U7C,0.541
14,C16A A40U,0.284
15,C15G C16A,0.367
16,C2G G36C,0.336
17,C2U G39A,0.376
18,G8A A37G,0.966
19,G39C C43G,0.384
20,U12C G25U,0.277
21,C38G A44G,0.833
22,C30U C38G,0.598
23,A1C A23G,0.326
24,U9C G27C,0.774

row,Variant,self-cleavage
1,G36U A41G,0.391
2,G35C A42U,0.324
3,U32C G33C,1.15
4,A6G U32C,0.931
5,U19C C43A,0.284
6,G17A C30A,0.561
7,G8C G45U,0.546
8,C15U G35U,0.701
9,G8U G25U,0.391
10,U7G U24G,1.92
11,U7A U14G,1.14
12,U21A G36U,0.418
13,U21C G36A,0.718
14,U9A A23U,0.337
15,C3U G27A,0.93
16,C3A A6G,0.366
17,C38G A40U,0.301
18,G17C A23U,0.326
19,G17C G22C,0.326
20,A23U C30A,0.463
21,C16U A41U,0.264
22,A1G U9A,1.83
23,C30G G45U,0.377
24,U12C C30G,0.84

row,Variant,self-cleavage
1,U9C A40C,0.633
2,C3G G25U,0.329
3,G17A G36U,0.418
4,C16A G33A,1.29
5,C3G A6C,0.361
6,U28C A44G,1.11
7,C11U A34C,0.584
8,U21C G33A,0.74
9,U21G A23C,0.36
10,G18C A40G,0.369
11,A6C U9G,0.578
12,U19G C43A,0.319
13,U14A U21A,0.542
14,A1C A42C,0.336
15,C30U G33A,1.02
16,G10U C11G,1.2
17,A6C G18U,0.428
18,U14A G17U,0.564
19,G5U G17A,0.337
20,U14A G33A,0.751
21,G39A C43G,0.264
22,G10C A26C,0.447
23,C2G A41C,0.271
24,C2G A41G,0.369

row,Variant,self-cleavage
1,U7C G35U,0.439
2,U19A A26U,0.255
3,U19A A26C,0.364
4,G10U U21G,0.578
5,A26C G39U,0.351
6,G33A C38A,0.608
7,G10C U12C,1.26
8,C15U A40C,0.385
9,A26U G31U,0.748
10,G18C G27C,0.402
11,U9G U13A,1.93
12,U19A G25A,0.347
13,U24C G45C,0.641
14,G4A C38G,0.344
15,G17C G31A,0.699
16,C15A C30A,0.782
17,C3G U13G,0.628
18,U12G C20G,0.32
19,A34G G35A,0.675
20,C11A G45C,0.97
21,C11A U12G,1.61
22,G17A G35U,0.455
23,U14A U19G,0.356
24,A1G U7A,1.31

row,Variant,self-cleavage
1,A26U G33U,0.659
2,G4A A41C,0.34
3,A26C A37U,0.506
4,G8A A23G,0.325
5,C20G G33A,0.333
6,U19A A23C,0.346
7,G22C A23U,0.351
8,U7G G39A,0.369
9,C2A A37C,0.376
10,G10C C29G,0.638
11,A1C U14G,0.426
12,C3G G18A,0.323
13,A23U U24G,0.251
14,U14C A26C,0.371
15,A6G C43U,0.321
16,A1G C20U,0.971
17,G27C C38A,0.863
18,G8A G18C,0.574
19,C20A C43A,0.321
20,A6U C20G,0.378
21,U24A A40C,0.421
22,U9G G36U,0.569
23,A6G G36C,0.351
24,G10U G33C,1.1

row,Variant,self-cleavage
1,U24C A44U,0.542
2,U24C A44C,0.503
3,A26G G31C,0.324
4,U24C G27A,0.53
5,U12A G17U,0.827
6,A26G G36A,0.319
7,U28A A44G,0.596
8,A26U G39U,0.296
9,A23C,0.547
10,U13G G27U,0.375
11,G31C G36U,0.562
12,U14A A34C,1.05
13,A1G C43G,0.395
14,G4A G5U,0.398
15,C15U G25A,0.366
16,G8U C11A,1.11
17,U13G A41G,0.423
18,G31C G39A,0.355
19,G22U A34U,0.327
20,G4U C15U,0.523
21,U9G A44C,0.39
22,C3A U19G,0.296
23,G8C G25U,0.329
24,U21G A34G,0.602

row,Variant,self-cleavage
1,C2A C16G,0.363
2,C3U U9G,0.657
3,U21G A44G,0.697
4,C20G A37C,0.298
5,G5C C30G,0.314
6,U28C A40G,0.356
7,U12A U21C,0.517
8,U12A U21G,0.425
9,G4C G8C,0.592
10,G5U U21G,0.419
11,G4U A6U,0.387
12,U7C A40U,0.373
13,U19G G25U,0.37
14,C11A U19A,0.358
15,A26C A44G,0.803
16,G4U U13G,0.725
17,C20G A44G,0.629
18,G5A C38G,0.575
19,G4U U24C,0.549
20,G33A G45C,0.873
21,U14C C43A,0.279
22,A1C U24C,0.34
23,U21A A42U,0.402
24,G25A A41G,0.337

row,Variant,self-cleavage
1,C3A G27U,0.305
2,G22C C29A,0.296
3,U21G G36A,0.382
4,G18U C43A,0.286
5,U9C U32C,1.49
6,U13G U19G,0.314
7,A6U C38A,0.511
8,U21C A42G,0.323
9,G10U G22A,0.354
10,C11A C38A,0.892
11,C20U G25A,0.756
12,A1G A26U,0.971
13,U9A U28G,0.823
14,U7A U21G,0.319
15,G4U A37U,0.286
16,G4U A37G,0.305
17,A6U A44U,0.36
18,G35C A44C,0.42
19,G18C U21G,0.285
20,C3G G45A,0.371
21,G17U A37C,0.688
22,C11G A26U,1.05
23,A23G A37C,0.3
24,G25A G33C,0.438

row,Variant,self-cleavage
1,A6U A23U,0.311
2,G5U C15U,1.17
3,A6U U24A,0.494
4,C16U G36U,0.507
5,G10A G17C,0.61
6,G10A G17A,0.81
7,G31C C38A,0.62
8,C3G A40U,0.309
9,G5C U14A,0.845
10,C20U G22A,0.338
11,U21G G33U,0.798
12,G22C G31U,0.309
13,U13A G35C,0.799
14,G18A G33U,0.726
15,U19G U21A,0.323
16,A34G G36U,0.419
17,A1C G22C,0.352
18,A40U C43U,0.336
19,U14A A41U,0.296
20,C16U G35C,0.434
21,G25A A34C,0.278
22,U7C C20A,0.5
23,A42C A44U,0.351
24,A23C A44U,0.227

row,Variant,self-cleavage
1,U19A U28C,0.313
2,C2U U28C,0.79
3,U9G A23G,0.385
4,A40U A42U,0.367
5,U19C U21A,0.416
6,A42G C43A,0.309
7,C11U A37U,0.665
8,C11U G22C,0.339
9,A1U A23U,0.306
10,G25U G45C,0.398
11,A1C G17A,0.391
12,G17A U19G,0.332
13,G17A U19C,0.23
14,G25A A44C,0.38
15,U19C A41C,0.429
16,U19C A41G,0.228
17,G4U G36C,0.313
18,C16G C30G,0.473
19,G35C G45C,0.395
20,C2G G33U,0.535
21,C15G A41U,0.307
22,U32G A41G,0.299
23,C15U A26G,0.313
24,U7A G17C,0.481

row,Variant,self-cleavage
1,C3A U13C,0.963
2,G17C A42C,0.316
3,U19C C38A,0.414
4,U19C C38G,0.407
5,C3G G8C,0.452
6,G5U G36U,0.327
7,A37U C43A,0.31
8,C2U G18U,1.16
9,G18C U24G,0.365
10,G8U G27A,0.922
11,G33U G39U,0.343
12,U12C A44C,0.611
13,U21C G22C,0.39
14,A1G G22A,0.384
15,G5A A42U,0.353
16,G4U A40G,0.303
17,G10C C20U,0.487
18,A6U C16G,0.459
19,U13A A37C,1.21
20,U13A A37U,0.908
21,G27U U28C,0.38
22,G8C A40G,0.372
23,C2U A34C,0.933
24,C38G A41U,0.316

row,Variant,self-cleavage
1,U13A G39C,0.341
2,U24C U32C,1.2
3,A1U G39A,0.349
4,C2A U28A,0.394
5,U9C C20A,0.363
6,A26G C43U,0.285
7,A37U A40U,0.303
8,G5A U9A,1.27
9,C3A G8U,0.902
10,A6C G10C,0.515
11,U14A G22U,0.331
12,A34U C38A,0.409
13,C2A G17A,0.364
14,U19A G35A,0.317
15,G25C G33C,0.272
16,G25A A40U,0.356
17,U14C G33U,1.09
18,C16A C43G,0.294
19,G5A G25U,0.354
20,C3A G35U,0.369
21,C15U G45C,0.646
22,U12A A40U,0.32
23,G8A C38U,0.926
24,G4A G45U,0.418

row,Variant,self-cleavage
1,C20A U21C,0.394
2,U13G C16U,0.836
3,G18C C38A,0.327
4,C11G G18C,0.426
5,A37G A40G,0.274
6,G31A A40C,0.642
7,C30A A41U,0.377
8,C29A C43U,0.396
9,A26C A40U,0.352
10,G27U A40C,0.363
11,U7A C20A,0.298
12,U7A C20U,0.345
13,G27U A34U,0.382
14,G10U A44G,1.57
15,G22U A44G,0.711
16,G10A U24C,0.932
17,U7G A34C,1.44
18,C30U A42G,0.24
19,G22A C38U,0.328
20,G5C G35A,0.362
21,U24G A26C,0.373
22,G33A A40C,0.792
